Data as given in US20130101582A1, “Tiki1 and Tiki2, Wnt Inhibitors” (CHILDREN'S MEDICAL CENTER CORPORATION, priority 2010, published 2013).

Assays:
mFz8CRD-IgG = molecular target: T1, mFz8CRD-IgG (Mus musculus, UniProt Q61091); assay: Binding of Wnt3a CM to mFz8CRD-IgG, protein G precipitation
T1 construct: using the extracellular domain of mouse Fz8 (mFz8CRD-IgG) or LRP6 (LRP6N-IgG)
T1 sequence (Q61091 30-151 limits assumed): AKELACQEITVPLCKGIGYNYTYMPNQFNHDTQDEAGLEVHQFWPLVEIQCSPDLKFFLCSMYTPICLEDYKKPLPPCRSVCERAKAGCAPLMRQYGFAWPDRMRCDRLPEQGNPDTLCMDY
Method: Wnt3a CM was incubated with LRP6N-IgG or mFz8CRD-IgG. The protein complexes were precipitated by protein G agarose and subjected for Western blotting.
(§1) As Tiki proteins are related to bacterial proteins of unknown function, it was speculated that Tiki may antagonize Wnt signaling through a novel mechanism, possibly in an enzymatic fashion. Human Tiki2 was stably expressed in L cells or Wnt3a-expressing L cells (human Tiki1 was poorly expressed in L cells). […] In fact Wnt3a CM restored beta-catenin stabilization in Wnt3a-expressing cells that also expressed Tiki2 (FIG. 5A).

TOPFLASH reporter = TOPFLASH reporter activation by Wnt3a produced from Tiki2-expressing L cells; assay type: cell-based; settings: Wnt3a CM
Source text: as §1

[1] = test system: beta-catenin stabilization; assay: Beta-catenin stabilization in Wnt3a-expressing L cells, Western blotting; assay type: cell-based, mouse; settings: Wnt3a-producing L cells stably expressing human Tiki2
Method: Wnt3a CM rescued Tiki2 inhibition of beta-catenin stabilization in Wnt3a-expressing cells. Indicated cell lines were treated with control or Wnt3a CM for 2 hrs and whole cell lysates (WCL) were subjected for Western blotting. Beta-tubulin was a loading control.
as §1

Wnt3a = Wnt3a (Mus musculus, UniProt P27467); assay: Triton X-114 phase separation of Wnt3a secreted from Tiki-expressing cells; assay type: cell-based; parameters: expressed in transfected cells; host or cells: mouse L cells (Wnt3a-expressing); HEK293T
Source text: FIG. 6A is a gel showing that Tiki inactivates Wnt3a by regulating Wnt3a acylation/palmitoylation. A Triton X-114 phase separation experiment is shown in 6A. […] T, total; Aq, aqueous; De, detergent.
FIG. 6B is a gel showing that Wnt3a secreted from Tiki1 or Tiki2 but not GFP-expressing HEK293T cells partitioned in the aqueous phase.
C77 palmitoylation is required for Wnt3a activity (Willert, K. et al., Nature 423, 448-452 (2003)) and binding to both Fz and LRP6 (Komekado, H. et al., Genes Cells 12, 521-534 (2007); Cong, F. et al., Development 131, 5103-5115 (2004)), while S209 acylation is critical for Wnt3a secretion (Takada, R. et al., Dev Cell 11, 791-801 (2006)). Thus Tiki proteins may affect C77 palmitoylation but not S209 acylation. The palmitate adduct at C77 is the primary contributor to Wnt3a hydrophobicity because palmitoylated Wnt3a is partitioned in the Triton X-114 detergent phase whereas Wnt3a lacking the palmitate is soluble in the aqueous phase (Willert, K. et al., Nature 423, 448-452 (2003); Komekado, H. et al., Genes Cells 12, 521-534 (2007)).

Wnt3a, sequence (P27467 19-352): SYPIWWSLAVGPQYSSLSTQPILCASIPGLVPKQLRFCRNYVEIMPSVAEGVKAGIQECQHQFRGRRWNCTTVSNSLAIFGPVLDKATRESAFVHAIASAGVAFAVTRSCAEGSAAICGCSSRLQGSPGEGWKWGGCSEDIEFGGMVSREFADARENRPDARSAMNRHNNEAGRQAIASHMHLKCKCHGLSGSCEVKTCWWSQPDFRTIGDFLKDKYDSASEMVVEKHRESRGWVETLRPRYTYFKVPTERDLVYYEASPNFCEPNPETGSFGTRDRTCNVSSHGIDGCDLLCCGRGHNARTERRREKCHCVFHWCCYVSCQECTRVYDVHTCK

B1: Tiki2: Human Tiki2 (XP 371250/LOC388630) (SEQ ID NO:2), expressed in L or HEK293T cells (protein, listed as Homo sapiens)
chain: MHAALAGPLLAALLATARARPQPPDGGQCRPPGSQRDLNSFLWTIRRDPPAYLFGTIHVPYTRVWDFIPDNSKAAFQASTRVYFELDLTDPYTISALASCQLLPHGENLQDVLPHELYWRLKRHLDYVKLMMPSWMTPAQRGKGLYADYLFNAIAGNWERKRPVWVMLMVNSLTERDVRFRGVPVLDLYLAQQAEKMKKTTGAVEQVEEQCHPLNNGLNFSQVLFALNQTLLQQESVRAGSLQASYTTEDLIKHYNCGDLSAVIFNHDTSQLPNFINTTLPPHEQVTAQEIDSYFRQELIYKRNERMGKRVMALLRENEDKICFFAFGAGHFLGNNTVIDILRQAGLEVDHTPAGQAIHSPAPQSPAPSPEGTSTSPAPVTPAAAVPEAPSVTPTAPPEDEDPALSPHLLLPDSLSQLEEFGRQRKWHKRQSTHQRPRQFNDLWVRIEDSTTASPPPLPLQPTHSSGTAKPPFQLSDQLQQQDPPGPASSSAPTLGLLPAIATTIAVCFLLHSLGPS
**Q.** How did the “Binding of Wnt3a secreted from Tiki2-expressing cells to Fz (mFz8CRD-IgG)” value (mFz8CRD-IgG) turn out when B1 was run?
**A.** failed to bind to either Fz or LRP6

**Q.** And the “Activity of Wnt3a produced from Tiki2-expressing L cells in activation of TOPFLASH reporter expression” value (TOPFLASH reporter)?
**A.** minimal activity

**Q.** What about the Beta-catenin stabilization [1] of the same molecule?
**A.** inhibited beta-catenin stabilization

**Q.** What about the “Partitioning of secreted Wnt3a in Triton X-114 phase separation” value (Wnt3a; HEK293T cells) of the same molecule?
**A.** partitioned exclusively in the aqueous phase

**Q.** And the “Partitioning of secreted Wnt3a in Triton X-114 phase separation” value (Wnt3a; L cells)?
**A.** partitioned exclusively in the aqueous phase
